Measurements from patent US20110059102A1, “Therapeutic Method Targeting Midkine” (NATIONAL UNIVERSITY CORPORATION NAGOYA UNIVERSITY, priority 2009, published 2011).
Entries after “also recorded” stand apart in the source; their conditions may differ. Read-outs that look alike come from different tables or passages of the source.

How the values were obtained:
MK = MK protein expression in lung and kidney by Western blotting after 5/6 nephrectomy; format: in vivo; details: Mdk+/+ mice after 5/6 nephrectomy
Experimental: (§1) Drug treatment model. In the drug treatment studies, Mdk^+/+ mice were randomly assigned to receive one of the following 5 treatments after 5/6 nephrectomy and were orally treated daily starting from 24 hours after 5/6 nephrectomy: vasodilator (hydralazine hydrochloride; Novartis) at a dose of 10 mg/kg/d (group 1, n=3); ACE inhibitor (temocapril; Daiichi Sankyo Co.) at a dose of 3 mg/kg/d (group 2, n=3); angiotensin receptor blocker (olmesartan; Daiichi Sankyo Co.) at a dose of 3 mg/kg/d (group 3, n=3); antioxidative reagent (tempol; Alexis Biochemicals) at a dose of 3 mmol/l in drinking solution after 5/6 nephrectomy (group 4, n=6); and sham operation (group 5, n=6). Drug treatment was performed […]. In the present study, we determined the dosage according to previous reports (Hypertension. 13:582-588, J. Cardiovasc. Pharmacol. 40:533-542, Hypertension. 43:841-848). Blood pressure was measured by the tail-cuff method at 2 weeks, as described below under Blood pressure monitoring. Mice were sacrificed at 2 weeks after 5/6 nephrectomy, and blood and tissue samples were collected.
Western blot analysis. Mouse kidney, lung, brain, heart, and liver tissues were snap-frozen in liquid nitrogen for protein isolation. […] The density of each band was measured using the public domain NIH Image program (http://rsb.info.nih.gov/nih-image/).

Ang II = experiment: Plasma Ang II concentration after 5/6 nephrectomy; format: in vivo; details: Mdk+/+ mice after 5/6 nephrectomy
Experimental: as §1, with “Mice were sacrificed at 2 weeks after 5/6 nephrectomy, and blood and tissue samples were collected.” left out
Sample collection. […] Serum creatinine, blood urea nitrogen (Mdk^+/+: sham, n=6; 2 weeks, n=10; 4 weeks, n=9; 8 weeks, n=8; Mdk^−/−: sham, n=7; 2 weeks, n=7; 4 weeks, n=6; 8 weeks, n=4), and Ang II concentrations (Mdk^+/+: sham, n=6; 2 weeks, n=6; 4 weeks, n=8; Mdk^−/−: sham, n=6; 2 weeks, n=7; 4 weeks, n=5) were measured by Mitsubishi BCL.

[1] = system: Mdk+/+ mice after 5/6 nephrectomy; experiment: Kidney histology (PAS staining) after 5/6 nephrectomy, drug treatment model; format: in vivo; details: 2 weeks after 5/6 nephrectomy
Experimental: as §1
Histology and immunohistochemistry.

[2] = system: Mdk+/+ mice after 5/6 nephrectomy; experiment: Blood pressure by tail-cuff method, drug treatment model after 5/6 nephrectomy; format: in vivo; details: 2 weeks after 5/6 nephrectomy
Experimental: as §1
(§2) Blood pressure monitoring. Blood pressure was measured in restrained, conscious mice by the indirect tail-cuff technique under unstressed conditions (BP-98A; Softron) at 0, 2, 4, 6, and 8 weeks after 5/6 nephrectomy (J. Lab. Clin. Med. 78:957-962). Before measurement, the mice were warmed with a heating pad for 5 minutes. A total of 7-10 readings were taken for each mouse, at 1- to 2-minute intervals.

[3] = Body weight, blood urea nitrogen and serum creatinine after 5/6 nephrectomy, drug treatment model; format: in vivo; details: Mdk+/+ mice
Experimental: Animals and experimental design. Mice deficient in Mdk were generated as described previously (Genes Cells. 3:811-822). After backcrossing of Mdk+/− mice for 14 generations with 129/Sv mice, Mdk+/− mice were mated with each other to generate Mdk^+/+ and Mdk^−/− mice, which were used in this study. Experiments were performed on 8 to 12-week-old female mice weighing 20-25 g that were housed under controlled environmental conditions and maintained with standard food and water. Animal care and experimental procedures were approved by the Animal Experimentation Committee of the Nagoya University Graduate School of Medicine and were conducted according to the Nagoya University Regulations for Experiments. Renal ablation was performed as described previously. Briefly, mice were anesthetized by diethyl ether. The flank region was shaved, and the animals were placed on a heating pad to maintain a constant body temperature (37° C.). Under anesthesia, right flank incisions were made, and the right kidney was removed. Seven days later, mice were anesthetized as above, and two-thirds of the mass of the left kidneys was ablated (Mdk^+/+: 2 weeks, n=13; 4 weeks, n=13; 8 weeks, n=8; Mdk^−/−: 2 weeks, n=10; 4 weeks, n=10; 8 weeks, n=4). After the renal ablation, the flanks were closed in 2 layers with 5-0 silk sutures. The animals received 100 ml/kg warm saline instilled into the peritoneal cavity during the procedure and were allowed to recover with free access to food and water. In the control mice, a sham operation was performed (Mdk^+/+, n=11; Mdk^−/−, n=8).
as §1
Sample collection. Mice were sacrificed at 2, 4, and 8 weeks after 5/6 nephrectomy. The remnant kidney, lung, brain, heart, and liver were removed rapidly, snap-frozen in liquid nitrogen, and stored at −80° C. until examinations were performed. Each tissue was processed for histology, protein extraction, and RNA extraction. Blood samples were collected into chilled tubes for measurement of renal function parameters and into chilled tubes containing EDTA for Ang II measurements. Serum and plasma were separated by centrifugation (500 g for 10 minutes) and stored at −80° C. until measurement were performed. Serum creatinine, blood urea nitrogen (Mdk^+/+: sham, n=6; 2 weeks, n=10; 4 weeks, n=9; 8 weeks, n=8; Mdk^−/−: sham, n=7; 2 weeks, n=7; 4 weeks, n=6; 8 weeks, n=4), and Ang II concentrations (Mdk^+/+: sham, n=6; 2 weeks, n=6; 4 weeks, n=8; Mdk^−/−: sham, n=6; 2 weeks, n=7; 4 weeks, n=5) were measured by Mitsubishi BCL.

[4] = system: Mdk-/- mice after 5/6 nephrectomy; experiment: rh-MK and -PTN treatment model (osmotic pump), blood pressure by tail-cuff; format: in vivo; details: 1.6 mg/ml, 100 μl by osmotic pump over 14 days
Experimental: (§3) rh-MK and -PTN treatment model. In the pump study, MK protein in saline (1.6 mg/ml) (n=5), PTN in saline (1.6 mg/ml; n=5), or saline alone (n=5) was infused using an osmotic pump (ALZA Corp.) into Mdk^−/− mice after 5/6 nephrectomy. The pumps continuously infused a total of 100 μl over 14 days. The pumps were implanted under the dorsal skin the next day after 5/6 nephrectomy. Blood pressure was measured by the indirect tail-cuff technique at 0 and 2 weeks after 5/6 nephrectomy. Mice were sacrificed at 2 weeks after 5/6 nephrectomy, and blood and tissue samples were collected.
as §2

PKC = experiment: Phospho-PKC expression in HMVEC-L by Western blotting; format: cell-based, human; details: exogenous MK 100 ng/ml plus heparin 20 μg/ml
Source text: Histology and immunohistochemistry. The removed kidneys and lungs were fixed in 10% buffered formalin, embedded in paraffin, and then cut into 4-10.1 μm sections. The sections were stained with H&E, PAS, and Masson's trichrome. Another tissue sample was embedded in OCT compound (Sakura Finetek) and frozen in liquid nitrogen for immunostaining. Sections were cut to a thickness of 3 μm with a cryostat and fixed in acetone. High-power fields were used to examine the sections for evidence of focal sclerosis (J. Hypertens. 13:1785-1790, J. Lab. Clin. Med. 115:165-173). Glomerular sclerosis was assessed by semiquantitative score (grades 0 to +4) using the method of Raij et al. (Kidney Int. 26:137-143): grade 0, no sclerosis of glomeruli; grade 1, sclerosis of up to 25% of glomerulus; grade 2, sclerosis of 25%-50% of glomerulus; grade 3, sclerosis of 50%-75% of glomerulus; grade 4, sclerosis of 75%-100% of glomerulus. At least 50 glomeruli were evaluated under ×400 magnification and results averaged for each kidney (Mdk^+/+: 2 weeks, n=5; 4 weeks, n=4; 8 weeks, n=4; Mdk^−/−: 2 weeks, n=4; 4 weeks, n=3; 8 weeks, n=3). Immunostaining for ACE and MK was performed on buffered formalin-fixed tissues. […] The lung and kidney section from each mouse was viewed under ×400 magnification, and then macrophages or neutrophils were counted from 10 fields and averaged. […]

[5] = system: retinal nerve degeneration model; details: prior injection of midkine; cited from earlier work
ACE [6] = experiment: ACE expression in HMVEC-L by Western blotting; format: cell-based, human; details: exogenous MK protein 100 ng/ml plus heparin 20 μg/ml
Source text: Histology and immunohistochemistry. The removed kidneys and lungs were fixed in 10% buffered formalin, embedded in paraffin, and then cut into 4-10.1 μm sections. The sections were stained with H&E, PAS, and Masson's trichrome. Another tissue sample was embedded in OCT compound (Sakura Finetek) and frozen in liquid nitrogen for immunostaining. Sections were cut to a thickness of 3 μm with a cryostat and fixed in acetone. High-power fields were used to examine the sections for evidence of focal sclerosis (J. Hypertens. 13:1785-1790, J. Lab. Clin. Med. 115:165-173). Glomerular sclerosis was assessed by semiquantitative score (grades 0 to +4) using the method of Raij et al. (Kidney Int. 26:137-143): grade 0, no sclerosis of glomeruli; grade 1, sclerosis of up to 25% of glomerulus; grade 2, sclerosis of 25%-50% of glomerulus; grade 3, sclerosis of 50%-75% of glomerulus; grade 4, sclerosis of 75%-100% of glomerulus. At least 50 glomeruli were evaluated under ×400 magnification and results averaged for each kidney (Mdk^+/+: 2 weeks, n=5; 4 weeks, n=4; 8 weeks, n=4; Mdk^−/−: 2 weeks, n=4; 4 weeks, n=3; 8 weeks, n=3). Immunostaining for ACE and MK was performed on buffered formalin-fixed tissues. Sections were deparaffinized, rehydrated, incubated in 3% hydrogen peroxide in methanol to block endogenous peroxidase, and washed in 10% normal goat serum (Dako) in PBS to block nonspecific binding. Subsequently, sections were incubated with mouse anti-ACE monoclonal antibody (dilution, 1:400; Chemicon International, Millipore) or anti-MK monoclonal antibody (dilution, 1:100) overnight at 4° C. as described previously (22), followed by a conjugate of polyclonal goat anti-mouse IgG antibody and HRP-labeled polymer (Histofine Simple Stain; Nichirei) for 1 hour at room temperature as a secondary antibody. The staining was visualized with 3-3′ diaminobenzidine (Nichirei) to produce a brown color. The sections were covered with 90% glycerol containing p-phenylenediamine and were examined by electron microscopy (H-7100; Hitachi). For double immunofluorescence staining of MK and thrombomodulin as a marker of the vascular endothelium, the cryosections of lungs were first incubated with chicken anti-human MK (dilution, 1:200) and then with rabbit anti-rat thrombomodulin (dilution, 1:1,000) (J. Immunol. 150:5633-5646), followed by incubation with FITC-labeled rabbit anti-chicken IgG (dilution, 1:160) and rhodamine-labeled goat anti-rabbit IgG (dilution, 1:320) as secondary antibodies. […] The lung and kidney section from each mouse was viewed under ×400 magnification, and then macrophages or neutrophils were counted from 10 fields and averaged. […]

[7] = system: acute myocardial infarction model; details: administration of midkine; cited from earlier work
[8] = compared with mouse MK produced in L cells; cited from earlier work
[9] = system: cerebral ischemia reperfusion insult model; details: cited from earlier work
HMVEC-L = experiment: Ang II concentration in HMVEC-L (conversion from Ang I to Ang II); format: cell-based, human; details: HMVEC-L treated 36 hours with MK 100 ng/ml plus heparin 20 μg/ml or heparin alone, then Ang I added
Experimental: Ang II concentration in HMVEC-L. After reaching confluence, HMVEC-L were washed with PBS and cultured for 24 hours in essential basal medium containing 0.5% FBS. These cells were exposed to 100 ng/ml rh-MK plus 20 μg/ml heparin or 20 μg/ml heparin alone in essential basal medium containing 0.5% FBS for 36 hours. After stimulation, HMVEC-L were washed with PBS and exposed to 500 pM Ang I (Sigma-Aldrich) for 10 and 25 minutes. Supernatants were collected into chilled tubes, and then the Ang II concentration was measured as previously described (Hypertension. 39:129-134).

ACE [10] = experiment: rh-MK and -PTN treatment model, ACE expression in the lung by Western blotting; format: in vivo; details: Mdk-/- mice after 5/6 nephrectomy, 1.6 mg/ml, 100 μl by osmotic pump over 14 days
Experimental: as §3
Western blot analysis. Mouse kidney, lung, brain, heart, and liver tissues were snap-frozen in liquid nitrogen for protein isolation. Western blot analysis was performed as described previously (Br. J. Cancer. 75:354-359). The blots were subsequently incubated with goat anti-human MK antibody (dilution, 1:1,000), monoclonal anti-β-actin antibody (dilution, 1:1,000; Sigma-Aldrich), mouse anti-ACE monoclonal antibody (dilution, 1:1,000; Chemicon International, Millipore), or rabbit anti-phospho-PKC antibody (dilution, 1:1,000; Cell Signaling Technology), followed by incubation with peroxidase-conjugated goat IgG, mouse IgG, or rabbit IgG (dilution, 1:5,000; Jackson Immunoresearch Laboratories Inc.). […] The density of each band was measured using the public domain NIH Image program (http://rsb.info.nih.gov/nih-image/).

[11] = 2 weeks after nephrectomy, oral daily at indicated dose, mean ± SD

Molecule | MK expression in the lung (MK; tempol 3 mmol/l in drinking water) | MK expression in the kidney (MK; tempol in drinking water) | Plasma Ang II levels (Ang II) | Glomerular sclerosis [1] | Renal tubulointerstitial damage ([1]; PAS staining) | Blood pressure / hypertension [2] | BUN (blood urea nitrogen) [3, 11] | Cre (serum creatinine) [3, 11] | Abnormal elevation of blood urea nitrogen and serum creatinine ([3]; 2 weeks after 5/6 nephrectomy) | Hypertension (SBP) [4] | Phosphorylation levels of PKC (PKC) | Neuronal cell loss [5] | ACE expression in HMVEC-L (ACE [6]) | Apoptotic loss of myocardial cells [7] | Neurotrophic activity [8] | Loss of hippocampal neuronal cells ([9]; post-insult therapeutic administration) | Loss of hippocampal neuronal cells ([9]; prior ventricular administration of midkine) | Conversion of Ang I to Ang II (HMVEC-L) | ACE expression in the lung (ACE [10])
CC1(C)CC(O)CC(C)(C)N1[O] [Tempol, 4-hydroxy-2,2,6,6-tetramethylpiperidine-N-oxyl] | reduced MK expression to normal levels | reduced | reduced | ameliorated | slight; also recorded: ameliorated | reduced | 41.2 ± 3.9^B mg/dl | 0.25 ± 0.04^A mg/dl | significantly reduced |  |  |  |  |  |  |  |  |  | 
MK: recombinant human midkine produced in Pichia pastoris; 13 kDa heparin-binding protein (protein, UniProt P21741 21-143, looked up) Midkine: VAKKKDKVKKGGPGSECAEWAWGPCTPSSKDCGVGFREGTCGAQTQRIRCRVPCNWKKEFGADCKYKFENWGACDGGTGTKVRQGTLKKARYNAQCQETIRVTKPCTPKTKAKAKAKKGKGKD |  |  |  |  |  |  |  |  |  | restore hypertension; also recorded: restored | increased | reduced | significantly enhanced; also recorded: induced | reduction | comparable | ineffective | able to remedy | converted to Ang II in a time-dependent manner | restored
